The source of these data is patent US20110136733A1 (IPSEN PHARMA S A S, published 2011).

Experiment [1] deals with T1, human recombinant GIP receptor (human, UniProt P48546 22-466).
T1 construct: whole, on cells; Membranes of CHO-K1 cells expressing the receptor; also called hGIP receptor
T1 sequence (looked up): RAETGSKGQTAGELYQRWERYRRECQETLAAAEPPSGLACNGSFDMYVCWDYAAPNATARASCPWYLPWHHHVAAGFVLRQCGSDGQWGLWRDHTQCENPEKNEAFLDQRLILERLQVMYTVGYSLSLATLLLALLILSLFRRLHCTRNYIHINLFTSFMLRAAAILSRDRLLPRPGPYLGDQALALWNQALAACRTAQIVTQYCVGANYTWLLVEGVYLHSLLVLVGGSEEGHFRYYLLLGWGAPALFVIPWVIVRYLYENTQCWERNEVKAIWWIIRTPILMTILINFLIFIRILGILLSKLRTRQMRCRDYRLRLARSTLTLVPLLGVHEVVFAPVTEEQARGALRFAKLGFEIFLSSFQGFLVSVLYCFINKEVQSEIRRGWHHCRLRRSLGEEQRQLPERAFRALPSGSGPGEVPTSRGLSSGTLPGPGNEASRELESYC
Nature of the experiment: [125I]GIP competition, membranes of CHO-K1 cells expressing human GIP receptor.

Experiment [2] concerns the target T1, human recombinant GIP receptor. Nature of the experiment: [125I]GIP competition, membranes of CHO-K1 cells expressing human GIP receptor, same conditions as Table 2.

Where no end group is shown, it is not given here.

Usually Ki stands for a measure of affinity in units of concentration, obtained from inhibition or displacement. Take XXEGTFISDYXIAXDKIHQQDFVNWLLAQKGKKNDWKHNITQ (NMe-Tyr at 1; Aib at 2; A5c at 11; Nle at 14; C-terminal free acid) [(NMe-Tyr^1, Aib^2, A5c^11, Nle^14)hGIP(1-42)-OH]: the Ki in experiment [1] came out at 0.19 nM. With YAPGTFISDYSIAMDKIHQQDFVNWLLAQKGKKNDWKHNITQ-OH [[Pro^3]hGIP(1-42)-OH], the inhibitory constant (Ki) in experiment [2] was determined as 171 nM.
